Values of other authors, collected in PMC8878198.

Biological target: CXCL8 (Homo sapiens) (UniProt P10145)
Sequence (P10145 28-99): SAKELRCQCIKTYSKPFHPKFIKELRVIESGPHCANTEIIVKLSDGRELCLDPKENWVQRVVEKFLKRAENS

CXCR2, sequence (P25025 whole entry): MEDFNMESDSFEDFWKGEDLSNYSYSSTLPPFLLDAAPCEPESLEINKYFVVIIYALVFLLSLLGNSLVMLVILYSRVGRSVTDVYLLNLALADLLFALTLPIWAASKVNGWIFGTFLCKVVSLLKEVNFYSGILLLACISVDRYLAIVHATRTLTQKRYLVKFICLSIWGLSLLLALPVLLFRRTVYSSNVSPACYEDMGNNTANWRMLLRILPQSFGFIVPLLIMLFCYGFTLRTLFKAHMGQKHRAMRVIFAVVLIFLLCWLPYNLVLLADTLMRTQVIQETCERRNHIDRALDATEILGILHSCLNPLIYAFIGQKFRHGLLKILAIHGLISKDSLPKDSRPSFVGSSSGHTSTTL

CXCR2 (from UniProt P25025)
Kd: 0.7 nM
